Like-named read-outs stand apart in the source and are kept apart here.
What was measured:
[1] = target: T1, T4 DNA ligase (Enterobacteria phage T4?) (UniProt P00970)
T1 sequence: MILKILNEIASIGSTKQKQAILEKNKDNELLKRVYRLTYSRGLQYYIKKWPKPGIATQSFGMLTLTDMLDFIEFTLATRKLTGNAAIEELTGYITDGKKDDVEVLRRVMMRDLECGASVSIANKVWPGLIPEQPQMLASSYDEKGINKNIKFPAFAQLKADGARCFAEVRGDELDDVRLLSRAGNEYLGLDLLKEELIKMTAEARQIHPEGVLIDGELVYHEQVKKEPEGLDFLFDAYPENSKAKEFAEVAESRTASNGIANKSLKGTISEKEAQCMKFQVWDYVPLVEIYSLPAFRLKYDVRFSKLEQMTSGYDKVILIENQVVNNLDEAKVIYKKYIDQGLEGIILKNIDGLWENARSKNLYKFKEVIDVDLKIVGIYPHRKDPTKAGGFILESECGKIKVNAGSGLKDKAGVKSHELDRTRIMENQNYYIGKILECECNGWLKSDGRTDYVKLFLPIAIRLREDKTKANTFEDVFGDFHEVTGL

[2] = target: T2, PBCV-1 DNA ligase (Paramecium bursaria Chlorella virus 1?) (UniProt O41026); conditions: T4 ligase buffer, 25 C 1 h; library yield 50%
T2 sequence: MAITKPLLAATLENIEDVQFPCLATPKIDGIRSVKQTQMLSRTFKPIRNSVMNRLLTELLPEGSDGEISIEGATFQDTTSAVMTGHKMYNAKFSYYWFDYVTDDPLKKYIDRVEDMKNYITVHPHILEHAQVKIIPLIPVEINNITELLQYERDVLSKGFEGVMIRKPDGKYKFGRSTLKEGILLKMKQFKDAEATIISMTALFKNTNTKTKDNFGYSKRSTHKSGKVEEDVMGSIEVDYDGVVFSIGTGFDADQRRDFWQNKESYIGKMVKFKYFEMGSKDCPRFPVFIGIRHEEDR

[3] = target: T3, T3 DNA ligase (Enterobacteria phage T3?) (UniProt P07717); conditions: T4 ligase buffer, 25 C 1 h
T3 sequence: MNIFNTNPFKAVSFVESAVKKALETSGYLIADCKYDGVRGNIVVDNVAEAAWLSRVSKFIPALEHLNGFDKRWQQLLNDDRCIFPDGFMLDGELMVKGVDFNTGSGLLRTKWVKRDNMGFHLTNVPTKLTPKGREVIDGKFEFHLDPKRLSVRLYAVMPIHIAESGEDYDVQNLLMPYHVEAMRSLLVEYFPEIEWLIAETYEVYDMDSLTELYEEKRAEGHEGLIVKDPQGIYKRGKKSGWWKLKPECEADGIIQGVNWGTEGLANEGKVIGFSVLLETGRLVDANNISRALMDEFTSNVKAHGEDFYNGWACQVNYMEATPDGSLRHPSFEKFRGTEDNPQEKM

[4] = test system: T4, Human DNA ligase 3 (hLig3 beta) (Homo sapiens), P49916-4
T4 sequence: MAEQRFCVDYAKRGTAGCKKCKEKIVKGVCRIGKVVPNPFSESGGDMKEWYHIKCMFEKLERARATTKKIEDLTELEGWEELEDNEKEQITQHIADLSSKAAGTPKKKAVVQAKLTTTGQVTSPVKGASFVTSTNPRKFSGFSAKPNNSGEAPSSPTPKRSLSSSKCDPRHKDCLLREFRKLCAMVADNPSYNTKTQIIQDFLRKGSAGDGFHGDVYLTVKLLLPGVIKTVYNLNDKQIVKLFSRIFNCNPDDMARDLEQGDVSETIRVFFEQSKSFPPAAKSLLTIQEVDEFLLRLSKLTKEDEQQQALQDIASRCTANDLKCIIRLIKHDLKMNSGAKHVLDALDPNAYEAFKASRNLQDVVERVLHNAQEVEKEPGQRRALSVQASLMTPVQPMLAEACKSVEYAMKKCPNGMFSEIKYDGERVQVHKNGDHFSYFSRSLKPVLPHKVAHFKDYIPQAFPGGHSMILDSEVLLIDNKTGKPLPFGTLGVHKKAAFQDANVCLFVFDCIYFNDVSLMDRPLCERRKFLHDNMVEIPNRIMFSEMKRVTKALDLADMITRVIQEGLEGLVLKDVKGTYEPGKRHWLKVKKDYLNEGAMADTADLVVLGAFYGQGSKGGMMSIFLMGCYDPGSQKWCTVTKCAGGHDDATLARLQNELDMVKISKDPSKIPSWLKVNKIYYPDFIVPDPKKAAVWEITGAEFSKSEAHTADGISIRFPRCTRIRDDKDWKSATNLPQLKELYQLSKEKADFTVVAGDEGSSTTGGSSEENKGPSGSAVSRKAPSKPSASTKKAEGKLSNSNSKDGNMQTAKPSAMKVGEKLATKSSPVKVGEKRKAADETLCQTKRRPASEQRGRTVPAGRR

[5] = target: T5, T7 DNA ligase (Enterobacteria phage T7?) (UniProt P00969)
T5 sequence: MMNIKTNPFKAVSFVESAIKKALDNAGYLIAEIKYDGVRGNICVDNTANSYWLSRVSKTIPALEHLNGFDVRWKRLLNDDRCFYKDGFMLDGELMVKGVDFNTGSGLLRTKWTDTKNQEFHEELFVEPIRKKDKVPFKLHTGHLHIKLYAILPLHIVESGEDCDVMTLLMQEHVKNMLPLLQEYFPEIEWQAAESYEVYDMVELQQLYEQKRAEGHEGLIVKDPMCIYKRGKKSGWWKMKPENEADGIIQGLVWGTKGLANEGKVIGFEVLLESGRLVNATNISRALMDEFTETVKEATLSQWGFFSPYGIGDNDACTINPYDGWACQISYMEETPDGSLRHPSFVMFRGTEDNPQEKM

Question: “NNNN [randomized four-base 5' overhang hairpin library]” was tested. Which activity (% ligation fidelity) ([1]; SMRT sequencing, T4 ligase buffer, 10 mM MgCl2, 1 mM ATP, 25 C 1 h) did it give?
Answer: 72.4

Question: And the activity (% ligation fidelity) ([1]; with 6% PEG 6000)?
Answer: 66.9

Question: What about the activity (% ligation fidelity) [2] of the same substance?
Answer: 77.2

Question: And the activity (% ligation fidelity) [3]?
Answer: 59.2

Question: And the activity (% ligation fidelity) ([4]; T4 ligase buffer, 25 C 1 h, text p210 prints 56%)?
Answer: 44

Question: What about the activity (% ligation fidelity) ([4]; with 6% PEG 6000) of the same substance?
Answer: 49.7

Question: And the activity (% ligation fidelity) ([5]; T4 ligase buffer, 25 C 1 h, library yield 20%)?
Answer: 88.8

Question: And the activity (% ligation fidelity) ([5]; with 6% PEG 6000)?
Answer: 77.9
